Tests used:
ProBDNF = molecular target: T1, ProBDNF; test: ELISA, OD450
T1 sequence (peptide): CDQKVRPNEENNKDA

mBDNF = molecular target: T2, mBDNF (UniProt P23560 129-247, limits assumed); test: ELISA, mBDNF coated at 2 μg/ml, purified antibody added, OD450
T2 construct: mature; also called 成熟BDNF
T2 sequence (looked up): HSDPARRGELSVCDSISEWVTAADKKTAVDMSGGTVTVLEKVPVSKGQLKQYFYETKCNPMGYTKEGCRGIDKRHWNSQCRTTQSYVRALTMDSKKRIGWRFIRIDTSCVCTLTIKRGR

B1: 抗ProBDNF抗体 (antibody, IgG2b, V domains shown)
VH: QVQLQQSGPELVKPGASVTISCKTSAYGFSSSWMNWVKQRPGQGLEWIGRIYPGDGETNYNGKFMGKATLTADKSSNTVYMHLSSLTSVDSAVYFCTRRELVYWGQGTLVTVSA
VL: DIVLTQSPASLAVSLGQRATISCRTSESVDTYGNSFIHWYQQKPGQPPKLLIYRASRLESGIPARFSGSGSRTDFTLTINPVEADDVATYYCQQSYEDPWTFGGGTKLEIK
notes: Mouse hybridoma antibody, made recombinantly in 293 cells; also called 针对前体脑源性神经营养因子的抗体; 实施例2提供的纯化抗体
- 抗原浓度 (lowest antigen concentration detected) (ProBDNF): 1.95 ng/mL
- binding result (mBDNF): no binding
